Assay results published in the nanobody polyreactivity screen of Harvey et al. (2022).

Assay: yeast display, Sf9 membrane polyspecificity reagent, FACS + sequencing; frameworks hold sequencing errors
How it was run: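 Galactose induction of a Saccharomyces cerevisiae BJ5465 synthetic nanobody display library ran 36–48 hours. The cells were then stained for 1 hour at 4 °C with 10% biotinylated, detergent-solubilized Sf9 membrane reagent, pulled down on streptavidin microbeads and FACS-sorted into low and high (top ~1%) gates on expression and reagent-binding fluorescence. Labels for polyreactivity follow the gate of origin.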

| Sequence | polyreactivity (PSR sort gate) |
| --- | --- |
| QVQLVESGGGLVQAGGSLRLSCAASGFTFVYNAMGWYRQAPGKERELVAAISKSGDRTYYADSVKGRFTISRDYAKNTVYLQMNSLKPEDTAVYYCNAKVVHGYQRFNYWGQGTEVTVSS | high polyreactivity |
| QVQLVESLVGLVQAVGSLRLSCAAYGFIFAFDSMGCYRHAPRKERELVAAIRTGGSKNYADSVKGRFTISRDNAKTTVYLQMNSLKPEDTAVYNCAANGRVGFWRWERDYWGQGTQVTVSS | high polyreactivity |
| QVQLVESGGGLVQAGGSLRLSCAASGYGMGWYRQAPGKEREFVAAITSGGSTNYAVSVKGRFTISRDNAKNTVYLHMNSLKPEDSAVYYCAAAYSLYGHRYDYWGQGTQVTVSS | high polyreactivity |
| QVQLVESGGGLVQAGGSLRLSCAASGRIFTRYAMGWYRQAPGKERELVAVITRSGGSTYYADSVKGRFTISRDNAKNTVYLQMNSLKPEDTAVYYCAAKYYGEMYYWGQGTQVTVSS | low polyreactivity |
| QVQLVESGGGLVQAGGSLRLSCAASGGTFPRNAMGWYRQAPGKERELVAAISRRGGSTYYADSVKGRFTISRDNAKNTVYLQMNSLKPEDTAVYYCATVQDKTYEYGYWGQGTQVTVSS | high polyreactivity |
| QVHLVESAGGLVQAGGSLRLTCAASGSTFLFYAMGMYRQAPGKERELVAAISRSGTSTYYADSVKGRFTISRDNAKNTVYLQMNSLKPEDTAVYYCAADDYGGYYYWGQGTQVTVSS | high polyreactivity |
| QVQLVESGGGLVQAGGSLRLSCAASGFTFDGYAMGWYRQAPGKERELVAAISQSGGSTYYADSVKGRVTISRDNAKNTVYLQMNSLKPEDTAVYYCNAYTGYRIRYDYWGQGTQVTVSS | high polyreactivity |
| QVQLVESGGGLVQAGGSLRLSCAASGRTFEWNAMGWYRQAPGKERELVAAITKRGGITYYADSVKGRFTISRDNAKNTVYLQMNSLKPEDTAVYYCAKRIVFYGRYDYWGQGTQVTVSS | high polyreactivity |
| QVQLVESGGGLVQAGGSLRLSCAASGGTFDPSAMGWYRQAPGKERDFVAAISWSGGRTYYADSVKGRFTISRDNAKNTVYLQMNSLKPEDTAVYYCAATSVGYAQRRYGYWGQGTQVTVSS | high polyreactivity |
| QVQLVDSAVGLVQAGGSLRLSCPASGSIISFYTMGWYRQAPGKERDLVASSTTYADSVKGRFTISRDNAKNTVYLQMNSLKPEVTAVYYCATRHPARRDYWGQGTQVTVSS | low polyreactivity |
| QVQLQVSGGGLVQAGGSLRLSCAACGSNFLTAEMGWYLQAPGKERELVAAIATGTSTNYADSVKGRFTISRDNAKNTVYLQMNSLKREDTALYYCATYHYWGQGTQVTVSS | low polyreactivity |
| QVQLVESRGGLVQAGGSLRLSCAASGITSRFYVMGWYRKAPGKERELVAAISTRGTSTYYADSVKGRFTLSRDNAKNTVYLQMNSLKPEDTAVYYCAAVGGYPYQYPYGSWGQGTQVTVSS | high polyreactivity |
| LVQLVESGGGLLQAGGSPRLSCAASGFNFRGYAMGWYRQAPRKERELVAAINSGGSTNYADSVKGRFTISRDNAKNTVYLQMNSLNPEDTAVSYCAARVKTSYRYLRTYNYWGQGTQVTVSS | high polyreactivity |
| QVQLVESGGGLVQAGGSLRLSCAASGSTFGYYAMGWYRQAPGKERELVAAIRYSGGTTYYADSVKGRFTISRDNAKNTVYLQMNSLKPEDTAVYYCAAVYTSGYYYWGQGTQVTVSS | high polyreactivity |
| QVQLVESGGGLVQAGGSLRLSCAASGYIFEDYAMGWYRQAPGKERELVASIDSGSTTNYADSVKGRFTISRDNAKNTVYLQMNSLKPEDTAVYYCAADSYVSPEVRFDYWGQGTQVTVSS | low polyreactivity |
| QVHLVESGGGLVQPGGTLRLTCAASGSTFGSNARGWYRLAPGKESELVAAITRRGGSTYYADSVKGRFTISRDNAKNTVDLQMNSLKPEDTAVYYCDNVYYYLYTRYDYWGQGTEVTVSS | low polyreactivity |
| QVQLVESGGGLVQAGGSLRLSCAASGRTLTFYAMGWYRQAPVKERELVAAISRRAGSTYYADSVKGRFTISRDTAKNTVYLQMNSLKPEDTAVYYCAREPYSASHRYCLYRGYDYWGQGTQVTVSS | low polyreactivity |
| QVQLVESGGGLVQAGGSLRLSCAASGSTLRGYTMGWYRQAPGKERELVAAISWSGASTYYADSVKGRFTISRDNAKNTVYLQMNSLKPEDTAVYYCYRAGRYVREYTVDYWGQGTQVTVSS | high polyreactivity |
| QFQLEESGGGLVQAGGSLRLSCAASGSTFWYNAMGWYRQAPGKERELVAAISRSGATTYYADSVKGRFTISRDNAKNTVYLQMNSLKPEDTAVYYCNAVISPSSYVRNSDYWGQGTQVTVSS | low polyreactivity |
| QVQLVESGGGLVQAGGSLRLSCAASGSTFKIYVMGWYRQAPGKERELVAAISWSGGRTFYADSVKGRFTISRDNAKNTVYLQMNSLKPEDTAVYYCAARWQRYRSGTGDYWGQGTQVTVSS | high polyreactivity |
| QVQLVESGGGLVQAGGSLRFSSPASGLTFGTYAMGWYRQAPGKERELVAAISTSGVRTYYADSVKGRFTISRDIAKNTVYLQMNSLKPEDTAVYYCAARYNRAYSRDYWGQGSQVTVSS | high polyreactivity |
| QVQLVESGGGLVQAGGSLRLSCAASGRIFRRNAIGWYRQAPGKERELEAAISSGCGSKYYADSVKGRFTISRDNAKNTVYLQMNSLKPEDTAVYYCNTVFYYDDVSQAHDYWGQGTQVTVSS | high polyreactivity |

| Sequence | polyreactivity (PSR sort gate) |
| --- | --- |
| QVQLVESGGGLVQAGGSLRLSCAASGFTFKYYAMGWYRQAPGKERELVATITSGGRTNYADSVKGRFTISRDNAKNTVYLQMNSLKPEDTAVYYCATPYSAYWQNERDYWGQGTQVTVSS | high polyreactivity |
| QVQLVESGGGLVQAGGSLRLSCAASGFTFWYYAMGWYRQAPGKERELVAAITEDGDSTYYADSVKGRFTISRDNAKNTVYLQMNSLKPEDTAVYYCNTDLTFNGTSGDYDYWGQGSQVTVSS | low polyreactivity |
| QDQLVESGGGLVQAGGSLRLSCAASGRTFGEYAMGWYRQAPGKERELVAAISSTGSTYYADSVKGRFTISRDNAKNTVYLQMNSLKPEDTAVYDCAAEIVRYGDEYDYWGQGTQVTVSS | low polyreactivity |
| QVQLVESGGGLVQAGGRLSLSCAASGITFLGYAMGWYREAPGKDSELVAAISSGGSTYYADSVKGRFTISRDNAKNTVYLQMNILKPEDTAVYYCAKAVYYRDPYGGDYWGQGTQVTVSS | low polyreactivity |
| QVQLVESRGVLVQAGGSLRLSCAASGLTFGGNAKGWYRQAPGKERELVAAISWSDDTTDYADSVKGRFTISRDNAKNTVYLQMNSLKPEDTAVYYCAARLPFEHVDYWGQGTQVTVSS | low polyreactivity |
| QVQLVESGGGLVQAGGSLRLSCGASGRTFPVYAMGWYRQAPGKERELVADISDGGSTNYADSVKGRFTISRDNAKNTVDLQMNSLKPEDTAVYYCNATTFAFSPSLKGAYGYWGQGTQVTVST | low polyreactivity |
| LVQLVESGGGLVQAGGSLRLSCAASGSTFFYAMGWYRQAPGKERELVAGIVWSGGSTYYADSVKGRFTISRDNAKNTVYLQMNSLKPEDTAVYYCPAEYTDDYWGQGTQVTVSS | low polyreactivity |
| QVQLVESGGGLVQAGGSLRLSCAASGSPFKRYAMGWYRQAPGKERELVASITRRGGSTYYADSVKGRFTISRDNAKNTVYLKMNSLKPEDSAVYYCAALQGRSSARQDSYGYWGQGTQVTVSS | high polyreactivity |
| QVQLVESGGGLVQAGGSLRLSCAASGGTFRSNAMGWYRQAPGKERELVAASTNYADSVKGRFTISRDNAKTTVYLQMNSLKPEDTAVYFCAARLASWPLTYDFQWYEYWGQGTQVTLSS | low polyreactivity |
| QVQLVESGGGLVHAGGSLRLSCAASGIIFRFYAMGWYRQAPAKERELVAAISSGGSTYYADSVKGRFTISRDNAKNTVYLQMIRLKPEDTAVYYCNARVRYKRTVRYGYWGQGTQVTVSS | high polyreactivity |
| QVQLVESGGGLVQAGGSLRLSCAASGSIFGYYAMGWYRQAPGKERELVAAISSSGASTYYADSVKGRFTISRDNAKNTVYLQMNSLKPEDTAVNYCNAARRYPTRGGYWGQGTQVTVSS | high polyreactivity |
| QVQRVESGGGLVQAGASLRLSCAASGRTFRSYTMGWYRQAPGKERELVATISGSGSTNYADSVKGRFTISRDNAKITVYLQMNSLKPEDTAVYYCAADVSLSVFKLDYWGQGTQVTVSS | low polyreactivity |
| QVQLEESGGGLVQAGGSLSLSCAASGSIFYGYAMGWYRQAPGKERELVAAITSGGRTYYADSVKGRFTISRDNAKNTVYLQMNSLKPEDTAVYYCNAVYRKTSYGYWGQGTQVTVSS | high polyreactivity |
| QVQLVDSGGGLVQAGGSLRLSCAASGLTIPVYTMVWYRHAPGTEREFVAAITYNGGRTYYADCVKGRFTISRDNAKNTVYLQMNSLKPEDTAVYYCAAEYGTYFVRYYAGASYRYGYWGQGTQVTVSS | low polyreactivity |
| QVQLVESGGGLVQAGGSLRLSCAASGYTFSNNAMGWYRQAPGKERELVAAISRSTGSTYYADSVKGRFTISRDYAKNTVYLQMNSLKPEDTAVYYCAVYRHGYGYNYWGQGTQVTVSS | high polyreactivity |
| QVQLVESGGGLVQAGGSLRLSCAASGRIFGPNDMGWYRQAPGKDRELVAAISWSGSSTRYADSVKGRFTISRDNAKNTVYLQMNSLKPEDTAGYYCAADRYWHSVVRDEDYWGQGTQVTVSS | low polyreactivity |
| QVQLVESGGGLVQAGGSLRLSCAASGTTLVRYAMGWYRQAPGKERELVASISYSGGSTHYADSVKGRFTISRDNAKNTVYLQMNSLKPEDTAVYYCAARPYYSWGGHYYWGQGTQVTVSS | high polyreactivity |
| QVQLVESGGGLVQAGGSLRLSCAASGSIFGKNAMGWYRQAPGKERELVAAITRRGGSTYYADSVKGRFTISRDNAKNTVYLQMNSLKPEDTAVYYCNALLTGGYQDSYPDDYWGQGTQVTVSS | high polyreactivity |
| QVQLVESGGGLVQAGGSLRLSCAASGRIFSVYTMGLYRQAPGKERELGAAISSGGRTYYADSVKGRFTISRDNAKNTVYLQMNSLKPEDTAVYYCAAGSHYAFYYWGQGTQVTVSS | high polyreactivity |
| QVQLVESGGGLVQAGGSLRLSCAASGSIFWLYAMGWYRQAPGKERELVAAIDSGDSTKYADSVKGRFTISRDNAKTTVYLQMNSLKPEDTAVYYCNASRRYHVRAPYDYWGQGTQVTLSS | low polyreactivity |
| QVQLVESGGCLVQAGGSLRLSCAASGRIFGLYAMGWYRQAPGKEREFVAAISSSGSDTYYADSVKGRFTISRDNAKNTVYLQINSLKPDYTAVYYCAKRRLYLCFDYNSSAYEYGYWGQGTQVTVSS | low polyreactivity |
